Substrate in the series: C[N+](C)(C)[C@@H](Cc1cnc[nH]1)C(=O)[O-]
The series is described as follows: purified protein. The settings on record: 0.116 mM K2Sx, 50 mM KPi pH 8.0, 25 °C. The series is classed as biochemical, Chlorobium limicola.

Changes are numbered by the printed parent chain. Names may count otherwise.

B1: EanB (Chlorobium limicola DSM 245) (protein)
chain: MQNKNFRAPQSEAIGILYKLIETGSKHKNMYDHTEITTDSLLALLGSEKVKIIDVRSADAYNGWRMRGEVRGGHIKGAKSLPAKWLTDPEWLNIVRFKQIRPEDAIVLYGYTPEECEQTATRFKENGYNNVSVFHRFHPDWTGNDAFPMDRLEQYNRLVPAEWVNGLISGEEIPEYDNDTFIVCHAHYRNRDAYLSGHIPGATDMDTLALESPETWNRRTPEELKKALEEHGITASTTVVLYGKFMHPDNADEFPGSAAGHIGAIRLAFIMMYAGVEDVRVLNGGYQSWTDAGFAISKDDVPKTTVPEFGAPIPSRPEFAVDIDEAKEMLQSEDSDLVCVRSYPEYIGEVSGYNYIKKKGRIPGAIFAECGSDAYHMENYRNHDHTTREYHEIEDIWAKSGIIPKKHLAFYCGTGWRGSEAWFNALLMGWPRVSVYDGGWFEWSNDPENPYETGVPK
In the case of B1, the Km turned out to be 69.7 ± 8.7 µM and the kcat was 0.0113 ± 0.00017 s⁻¹.

B2: EanB (Chlorobium limicola DSM 245; C116A/C184A/C339A/C370A) (protein)
chain: B1 chain with C116A, C184A, C339A, C370A
Consider B2, for which, under “EanB C412-only variant”, the Km came to 65.9 ± 3.4 µM and the kcat came out at 0.0025 ± 0.00017 s⁻¹.

(Values after paper PMC8302205.)
